Results on three molecules are retold here after patent US7792645B2, “Three-dimensional structure of chalcone isomerase and methods of use thereof” (The Salk Institute for Biological Studies, priority 2000, dated 2010).

As usually defined, the kcat is the maximal rate divided by the concentration of active sites. For orientation: Km means the substrate concentration at which the rate is half of its maximum.

One data set has as its target T1, CHI active site (Medicago sativa, UniProt P28012).
T1 construct: histidine tag (pHIS8 vector) (N, cleaved yes); made in house; host or cells: E. coli BL21(DE3)
T1 sequence (P28012 1-222): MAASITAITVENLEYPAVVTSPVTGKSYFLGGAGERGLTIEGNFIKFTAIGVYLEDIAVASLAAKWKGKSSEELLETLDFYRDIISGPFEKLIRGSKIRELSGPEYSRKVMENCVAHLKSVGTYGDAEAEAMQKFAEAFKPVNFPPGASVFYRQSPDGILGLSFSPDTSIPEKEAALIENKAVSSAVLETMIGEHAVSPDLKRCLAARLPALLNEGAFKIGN
Kind of data set: Co-crystallization of CHI with (2S/2R)-naringenin, X-ray structure. Format: binding, Medicago sativa (alfalfa). Particulars: commercial mixture of (2S)- and (2R)-naringenin used for co-crystallization. As to the method:
Crystals of CHI (SEQ ID NO:1) were grown at 4° C. by vapor diffusion using the hanging drop method. A 2 μl drop containing a 1:1 mixture of 25 mg ml^−1 CHI and crystallization buffer (25% glycerol, 1.8-2.0 M ammonium sulfate and 0.05 M PIPES, pH 6.5) yielded diffraction quality crystals within a few days at 4° C. Crystals grew in space group P6522 with unit cell dimensions of a=90.37 Å; c=352.86 Å with two molecules per asymmetric unit and a solvent content of 72%. Native CHI diffraction data (105 K) were collected at beamline 7-1 of the Stanford Synchrotron Radiation Source (SSRL 7-1) on a 30 cm MAR imaging plate system. For generation of heavy atom derivatives, CHI crystals were soaked in mother liquor with either 1.2 mM K2OsCl6 or 1 mM HgCl2 for 12-16 hours. Heavy atom data (105 K) were collected at SSRL 9-1 on a 30 cm MAR imaging plate system. All images were indexed and integrated using DENZO and the reflections merged with SCALEPACK (Otwinowski, Z. & Minor, W., Methods Enzymol. 276:307-326, 1997). Data reduction was completed using programs from CCP4 (Collaborative Computational Project 4 (CCP4) Acta Crystallogr. D53:240-255, 1994) (See Table 3). […]

For data set [1], the system named is chalcone isomerase (CHI). Particulars: cyclization of chalcone; cited from earlier work.
Data set [2] deals with chalcone isomerase (CHI). Description: CHI enzyme assay, steady-state kinetics of 6′-deoxychalcone cyclization. The format is biochemical, Medicago sativa (alfalfa). To be noted: for kcat: cyclization of 6′-deoxychalcone, pH 7.5, substrate 2-50 μM; for kcat / Km: 25° C.; for Km: substrate 6′-deoxychalcone, pH 7.5. How it is done:
CHI assays were performed at 25° C. in a 0.5 ml reaction volume containing 0.05 M Hepes (pH 7.5), 50 μM 6′-deoxychalcone, and 3% ethanol as co-solvent. Time-dependent decreases in 6′-deoxychalcone absorbance (λmax=390 nm; ε=29,400 M^−1 cm^−1) were monitored with a Beckman DU-640 spectrophotometer. Determination of steady-state kinetic constants used the standard assay system with varied concentrations of substrate (2-50 μM) following fitting to the Michaelis-Menton equation using KALEIDAGRAPH (Abelbeck Software).

In data set [3] the target is T2, alfalfa chalcone synthase 2 (Medicago sativa, UniProt P30074).
T2 sequence (P30074 1-389): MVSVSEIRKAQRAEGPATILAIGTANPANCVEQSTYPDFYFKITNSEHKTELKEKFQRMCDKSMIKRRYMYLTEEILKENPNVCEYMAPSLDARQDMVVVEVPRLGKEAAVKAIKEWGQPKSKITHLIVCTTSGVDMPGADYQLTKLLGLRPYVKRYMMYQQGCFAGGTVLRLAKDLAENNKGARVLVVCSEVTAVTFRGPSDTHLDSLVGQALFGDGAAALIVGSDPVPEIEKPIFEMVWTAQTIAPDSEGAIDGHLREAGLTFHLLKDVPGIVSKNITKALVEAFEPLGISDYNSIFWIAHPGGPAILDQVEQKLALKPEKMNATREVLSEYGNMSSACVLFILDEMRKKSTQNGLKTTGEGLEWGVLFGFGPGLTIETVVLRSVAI
Description: Gel filtration and analytical ultracentrifugation for protein association in vitro. The format is binding.

Changes are numbered by the printed parent chain. In names and notes the source's numbering stands.

Consider `O=C1C[C@@H](c2ccc(O)cc2)Oc2cc(O)cc(O)c21` [(2S)-naringenin, 5,7,4′-trihydroxyflavanone], for which, on CHI active site, the “binding to CHI active site in co-crystal” value is listed as “bound the CHI active site”.

B1: CHI wild-type: chalcone isomerase from Medicago sativa (alfalfa), SEQ ID NO:1, expressed in E. coli (protein, listed as Medicago sativa)
chain: T1 sequence (P28012 1-222) with R36X, L38X, T48X, Y106X, K109X, V110X, N113X, T190X, M191X
modifications: MOD_RES (36) Arg, Met, Lys, Ala, His or Gln
As for B1, the “enzyme-catalyzed rate over spontaneous conversion rate” value with chalcone isomerase (CHI) [1] is given as 10^7 fold. For the same molecule, in the data set on chalcone isomerase (CHI) [2], the kcat amounted to 73.07 ± 8.62 s⁻¹ and the Km amounted to 25.7 µM. For the same molecule, the turnover number (kcat) with chalcone isomerase (CHI) [2] (listed as wild-type CHI) was determined as 73.07 s⁻¹. Also, in data set [3], the “association of alfalfa CHI and alfalfa chalcone synthase 2” value is “failed to detect association”.

B2: CHI Y106F: alfalfa chalcone isomerase mutant, Tyr 106 substituted by phenylalanine (protein, UniProt P28012 1-222, looked up, variant Y106F)
Chalcone--flavanone isomerase …: T1 sequence (P28012 1-222) with Y106F
On to B2, for which, in the data set with chalcone isomerase (CHI) [2] (Y106F mutant versus wild-type CHI, 6′-deoxychalcone), the “reduction in reaction rate” value is 100 fold. The results for the turnover number (kcat) in the data set on chalcone isomerase (CHI) [2] and in the data set with chalcone isomerase (CHI) [2] (listed as CHI Y106F mutant) were 1.15 ± 0.085 s⁻¹ and 1.15 s⁻¹, respectively. In addition, the Km with chalcone isomerase (CHI) [2] is 29.1 µM.
